Laboratory results reported in patent US20240124560A1.

Legend:
Assay in all cases: cell-based or functional assay
[1] = target: HIV-1 Env of pseudovirus NAC_92RW020 (HIV-1)
[2] = target: HIV-1 Env of pseudovirus NIH-070_R2184.c04 (HIV-1)
[3] = target: HIV-1 Env of NIH-011_1056.10.TA11.1826 (HIV-1)
[4] = target: HIV-1 Env of NIH-058_Q23ENV17 (HIV-1)
[5] = target: HIV-1 Env of NIH-053_CNE52 (HIV-1)
[6] = target: HIV-1 Env of pseudovirus NIH-058_Q23ENV17 (HIV-1)
[7] = target: HIV-1 Env of NIH-118_T255.34 (HIV-1)
[8] = target: HIV-1 Env of pseudovirus NIH-036_Ce2010 F5 (HIV-1)
[9] = target: HIV-1 Env of NIH-046_1394C9G1(Rev.) (HIV-1)
[10] = target: HIV-1 Env of NAC_92BR020 (HIV-1)
[11] = target: HIV-1 Env of NIH-099_3301.v1.c24 (HIV-1)
[12] = target: HIV-1 Env of NIH-004_PVO.4 (HIV-1)
[13] = target: HIV-1 Env of pseudovirus NIH-001_6535.3 (HIV-1)
[14] = target: HIV-1 Env of pseudovirus NAC_JRFL (HIV-1)
[15] = target: HIV-1 Env of pseudovirus NIH-084_X1254 c3 (clade G) (HIV-1)
[16] = target: HIV-1 Env of NIH-103_0815.v3.c3 (HIV-1)
[17] = target: HIV-1 Env of NIH-094_3817.v2.c59 (HIV-1)
[18] = target: HIV-1 Env of NIH-038_Ce1172 H1 (HIV-1)
[19] = target: HIV-1 Env of pseudovirus NIH-061_Q259ENVd2.17 (HIV-1)
[20] = target: HIV-1 Env of pseudovirus NIH-114_T257.31 (HIV-1)
[21] = target: HIV-1 Env of isolate NIH-087_P1981 C5 3 (HIV-1)
[22] = target: HIV-1 Env of NIH-042_ZM246F.D5 (HIV-1)
[23] = target: HIV-1 Env of pseudovirus NIH-018_Du172.17 (HIV-1)
[24] = target: HIV-1 Env of NIH-102_6545.v4.c1 (HIV-1)
[25] = target: HIV-1 Env of pseudovirus NIH-099_3301.v1.c24 (HIV-1)
[26] = target: HIV-1 Env of pseudovirus NIH-011_1056.10.TA11.1826 (HIV-1)
[27] = target: HIV-1 Env of pseudovirus NIH-060_Q769ENVd22 (HIV-1)
[28] = target: HIV-1 Env of pseudovirus NIH-082_X1193 c1 (clade G) (HIV-1)
[29] = target: HIV-1 Env of pseudovirus NAC_YU2 (HIV-1) (UniProt P35961)
[30] = target: HIV-1 Env of pseudovirus NIH-116_T263.8 (HIV-1)
[31] = target: HIV-1 Env of NAC_HxB2 (HIV-1) (UniProt P04578)
[32] = target: HIV-1 Env of pseudovirus NIH-016_SC05.8C11.2344 (HIV-1)
[33] = target: HIV-1 Env of pseudovirus NIH-020_ZM197M.PB7 (HIV-1)
[34] = target: HIV-1 Env of pseudovirus NIH-115_928.28 (HIV-1)
[35] = target: HIV-1 Env of NIH-079_BJOX010000.06.2 (HIV-1)
[36] = target: HIV-1 Env of pseudovirus NIH-032_HIV-16845.2.22 (HIV-1)
[37] = target: HIV-1 Env of pseudovirus NIH-076_CNE5 (HIV-1)
[38] = target: HIV-1 Env of NAC_MN (HIV-1) (UniProt P05877)
[39] = target: HIV-1 Env of NIH-100_6041.v3.c23 (HIV-1)
[40] = target: HIV-1 Env of NIH-068_620345.c01 (HIV-1)
[41] = target: HIV-1 Env of NAC_IAVIC22 (HIV-1)
[42] = target: HIV-1 Env of NIH-061_Q259ENVd2.17 (HIV-1)
[43] = target: HIV-1 Env of pseudovirus NIH-054_CNE53 (HIV-1)
[44] = target: HIV-1 Env of pseudovirus NIH-015_62357.14.D3.4589 (HIV-1)
[45] = target: HIV-1 Env of NIH-065_191955 A11 (HIV-1)
[46] = target: HIV-1 Env of pseudovirus NIH-041_BF1266.431a (HIV-1)

For 4E10 (antibody), the neutralization IC50 [1] was 2.14 µg/mL, the neutralization IC50 [2] was 0.223 µg/mL and the IC80 neutralization [3] was 2.81 µg/mL. For the same substance, the IC80 neutralization [4] was 5.37 µg/mL, the IC80 neutralization [5] was 3.85 µg/mL and the neutralization IC50 [6] was 1.29 µg/mL. The IC80 neutralization [7] was 1.38 µg/mL, the neutralization IC50 [8] was 14.4 µg/mL and the IC80 neutralization [9] was 10.4 µg/mL. For the same substance, the IC80 neutralization [10] was 13.5 µg/mL, the IC80 neutralization [11] was > 50 µg/mL and the IC80 neutralization [12] was 38.7 µg/mL. For the same substance, the neutralization IC50 [13] was 0.519 µg/mL, the neutralization IC50 [14] was 17.8 µg/mL and the IC50 (µg/ml), TZM-bl cell neutralization assay, pseudovirus [15] was 2.88 µg/mL. It also gave an IC80 neutralization [16] of 6.31 µg/mL, an IC80 neutralization [17] of 2.12 µg/mL and an IC80 neutralization [18] of 4.56 µg/mL. It also gave a neutralization IC50 [19] of 7.12 µg/mL, a neutralization IC50 [20] of 1.03 µg/mL and an IC80 (µg/ml), TZM-bl pseudovirus neutralization [21] of 0.406 µg/mL. For the same substance, the IC80 neutralization [22] was 6.7 µg/mL, the neutralization IC50 [23] was 0.102 µg/mL and the IC80 neutralization [24] was 13.3 µg/mL. It also gave a neutralization IC50 [25] of 20.3 µg/mL, a neutralization IC50 [26] of 0.688 µg/mL and a neutralization IC50 [27] of 1.61 µg/mL. For the same substance, the IC50 (µg/ml), TZM-bl cell neutralization assay, pseudovirus [28] was 0.359 µg/mL, the neutralization IC50 [29] was 15.9 µg/mL and the neutralization IC50 [30] was 0.206 µg/mL. For the same substance, the IC80 neutralization [31] was 0.089 µg/mL, the neutralization IC50 [32] was 0.828 µg/mL and the neutralization IC50 [33] was 0.226 µg/mL. The neutralization IC50 [34] was 0.112 µg/mL, the IC80 neutralization [35] was 1.73 µg/mL and the neutralization IC50 [36] was 0.097 µg/mL. It also gave a neutralization IC50 [37] of 1.34 µg/mL, an IC80 neutralization [38] of 0.135 µg/mL and an IC80 neutralization [39] of 22.2 µg/mL. It also gave an IC80 neutralization [40] of 3.06 µg/mL, an IC80 neutralization [41] of 6.11 µg/mL and an IC80 neutralization [42] of 28.9 µg/mL. The neutralization IC50 [43] was 0.38 µg/mL, the neutralization IC50 [44] was 2.87 µg/mL and the IC80 neutralization [45] was 0.157 µg/mL. It also gave a neutralization IC50 [46] of 2.47 µg/mL.

PGZL1 (antibody) showed a neutralization IC50 [1] of 20.8 µg/mL, a neutralization IC50 [2] of 12.9 µg/mL and an IC80 neutralization [3] of 14.9 µg/mL. The IC80 neutralization [4] was > 50 µg/mL, the IC80 neutralization [5] was > 50 µg/mL and the neutralization IC50 [6] was 16.5 µg/mL. The IC80 neutralization [7] was 13.2 µg/mL, the neutralization IC50 [8] was > 50 µg/mL and the IC80 neutralization [9] was 34.3 µg/mL. The IC80 neutralization [10] was > 50 µg/mL, the IC80 neutralization [11] was > 50 µg/mL and the IC80 neutralization [12] was > 50 µg/mL. For the same substance, the neutralization IC50 [13] was 1.42 µg/mL, the neutralization IC50 [14] was > 50 µg/mL and the IC50 (µg/ml), TZM-bl cell neutralization assay, pseudovirus [15] was 45.5 µg/mL. The IC80 neutralization [16] was > 50 µg/mL, the IC80 neutralization [17] was > 50 µg/mL and the IC80 neutralization [18] was 6.6 µg/mL. For the same substance, the neutralization IC50 [19] was > 50 µg/mL, the neutralization IC50 [20] was 29.6 µg/mL and the IC80 (µg/ml), TZM-bl pseudovirus neutralization [21] was 5.55 µg/mL. For the same substance, the IC80 neutralization [22] was > 50 µg/mL, the neutralization IC50 [23] was 0.424 µg/mL and the IC80 neutralization [24] was > 50 µg/mL. The neutralization IC50 [25] was > 50 µg/mL, the neutralization IC50 [26] was 3.72 µg/mL and the neutralization IC50 [27] was 20.2 µg/mL. The IC50 (µg/ml), TZM-bl cell neutralization assay, pseudovirus [28] was 5.31 µg/mL, the neutralization IC50 [29] was > 50 µg/mL and the neutralization IC50 [30] was 2.02 µg/mL. The IC80 neutralization [31] was 0.485 µg/mL, the neutralization IC50 [32] was 5.77 µg/mL and the neutralization IC50 [33] was 1.91 µg/mL. It also gave a neutralization IC50 [34] of 1.38 µg/mL, an IC80 neutralization [35] of 6.6 µg/mL and a neutralization IC50 [36] of 0.424 µg/mL. For the same substance, the neutralization IC50 [37] was 24.6 µg/mL, the IC80 neutralization [38] was 0.564 µg/mL and the IC80 neutralization [39] was > 50 µg/mL. The IC80 neutralization [40] was > 50 µg/mL, the IC80 neutralization [41] was > 50 µg/mL and the IC80 neutralization [42] was > 50 µg/mL. For the same substance, the neutralization IC50 [43] was 6 µg/mL, the neutralization IC50 [44] was 27.2 µg/mL and the IC80 neutralization [45] was 8.56 µg/mL. It also gave a neutralization IC50 [46] of 48.8 µg/mL.

For VRC01 (antibody), the neutralization IC50 [1] was 0.206 µg/mL, the neutralization IC50 [2] was 0.103 µg/mL and the IC80 neutralization [3] was 1.48 µg/mL. The IC80 neutralization [4] was 0.148 µg/mL, the IC80 neutralization [5] was 0.565 µg/mL and the neutralization IC50 [6] was 0.038 µg/mL. The IC80 neutralization [7] was 0.925 µg/mL, the neutralization IC50 [8] was 0.153 µg/mL and the IC80 neutralization [9] was 1.12 µg/mL. It also gave an IC80 neutralization [10] of 0.23 µg/mL, an IC80 neutralization [11] of 0.463 µg/mL and an IC80 neutralization [12] of 0.79 µg/mL. The neutralization IC50 [13] was 0.946 µg/mL, the neutralization IC50 [14] was 0.141 µg/mL and the IC50 (µg/ml), TZM-bl cell neutralization assay, pseudovirus [15] was 0.039 µg/mL. The IC80 neutralization [16] was 0.07 µg/mL, the IC80 neutralization [17] was > 50 µg/mL and the IC80 neutralization [18] was > 50 µg/mL. The neutralization IC50 [19] was 0.114 µg/mL, the neutralization IC50 [20] was 1.61 µg/mL and the IC80 (µg/ml), TZM-bl pseudovirus neutralization [21] was 0.8 µg/mL. The IC80 neutralization [22] was 43.7 µg/mL, the neutralization IC50 [23] was > 50 µg/mL and the IC80 neutralization [24] was > 50 µg/mL. It also gave a neutralization IC50 [25] of 0.112 µg/mL, a neutralization IC50 [26] of 0.372 µg/mL and a neutralization IC50 [27] of 0.025 µg/mL. The IC50 (µg/ml), TZM-bl cell neutralization assay, pseudovirus [28] was 0.098 µg/mL, the neutralization IC50 [29] was 0.123 µg/mL and the neutralization IC50 [30] was 0.124 µg/mL. The IC80 neutralization [31] was 0.081 µg/mL, the neutralization IC50 [32] was 0.508 µg/mL and the neutralization IC50 [33] was 0.17 µg/mL. For the same substance, the neutralization IC50 [34] was 0.249 µg/mL, the IC80 neutralization [35] was 7.79 µg/mL and the neutralization IC50 [36] was 0.968 µg/mL. For the same substance, the neutralization IC50 [37] was 0.059 µg/mL, the IC80 neutralization [38] was 0.196 µg/mL and the IC80 neutralization [39] was 0.087 µg/mL. The IC80 neutralization [40] was > 50 µg/mL, the IC80 neutralization [41] was 1.37 µg/mL and the IC80 neutralization [42] was 0.449 µg/mL. For the same substance, the neutralization IC50 [43] was 0.042 µg/mL, the neutralization IC50 [44] was 1.74 µg/mL and the IC80 neutralization [45] was 0.467 µg/mL. The neutralization IC50 [46] was 0.028 µg/mL.
